# Patent US20240383982A1 (Genmab, published 2024)
# B1: bsIgG1-huCD3-FEALxB7H4-C2-FEAR (bispecific antibody)
# heavy 1: not shown
# light 1: not shown
# heavy 2: EVQLVQSGAEVKKPGASVKVSCKASGYTFTSYWIGWVRQAPGQGLEWIGDIYPGGGYTNYNEKFKGRVTITRDTSTSTAYLELSSLRSEDTAVYYCARLDGSSYRGAMDSWGQGTLVTVSSASTKGPSVFPLAPSSKSTSGGTAALGCLVKDYFPEPVTVSWNSGALTSGVHTFPAVLQSSGLYSLSSVVTVPSSSLGTQTYICNVNHKPSNTKVDKRVEPKSCDKTHTCPPCPAPEFEGGPSVFLFPPKPKDTLMISRTPEVTCVVVAVSHEDPEVKFNWYVDGVEVHNAKTKPREEQYNSTYRVVSVLTVLHQDWLNGKEYKCKVSNKALPAPIEKTISKAKGQPREPQVYTLPPSREEMTKNQVSLTCLVKGFYPSDIAVEWESNGQPENNYKTTPPVLDSDGSFFLYSRLTVDKSRWQQGNVFSCSVMHEALHNHYTQKSLSLSPGK
# light 2: DIQMTQSPSSLSASVGDRVTITCKASQGFNKYVAWYQQKPGKAPKLLIYYTSTLQPGVPSRFSGSGSGRDYTLTISSLQPEDFATYYCLQYGNLLYAFGQGTKVEIKRTVAAPSVFIFPPSDEQLKSGTASVVCLLNNFYPREAKVQWKVDNALQSGNSQESVTEQDSKDSTYSLSSTLTLSKADYEKHKVYACEVTHQGLSSPVTKSFNRGEC
# notes: also called bslgG1-huCD3-FEALxB7H4-C2-FEAR
# B2: bsIgG1-huCD3-FEALxB7H4-C3-FEAR (bispecific antibody)
# heavy 1: not shown
# light 1: not shown
# heavy 2: EVQLVQSGAEVKKPGASVKVSCKASGYTFTNFWIHWVRQAPGQGLEWIGEIDPSDSYTNYNQKFKGRVTITRDTSTSTAYLELSSLRSEDTAVYYCAREITTVDYWGQGTLVTVSSASTKGPSVFPLAPSSKSTSGGTAALGCLVKDYFPEPVTVSWNSGALTSGVHTFPAVLQSSGLYSLSSVVTVPSSSLGTQTYICNVNHKPSNTKVDKRVEPKSCDKTHTCPPCPAPEFEGGPSVFLFPPKPKDTLMISRTPEVTCVVVAVSHEDPEVKFNWYVDGVEVHNAKTKPREEQYNSTYRVVSVLTVLHQDWLNGKEYKCKVSNKALPAPIEKTISKAKGQPREPQVYTLPPSREEMTKNQVSLTCLVKGFYPSDIAVEWESNGQPENNYKTTPPVLDSDGSFFLYSRLTVDKSRWQQGNVFSCSVMHEALHNHYTQKSLSLSPGK
# light 2: DIQMTQSPSSLSASVGDRVTITCSATSSISYMHWYQQKPGKAPKGWIYDTSKLAHGVPSRFSGSGSGTDFTLTISSLQPEDFATYYCHQRRSYPFTFGQGTKVEIKRTVAAPSVFIFPPSDEQLKSGTASVVCLLNNFYPREAKVQWKVDNALQSGNSQESVTEQDSKDSTYSLSSTLTLSKADYEKHKVYACEVTHQGLSSPVTKSFNRGEC
# notes: also called bslgG1-huCD3-FEALxB7H4-C3-FEAR
# How the values were obtained:
# B7H3 = target: T1, B7H3; test: flow cytometry, transiently transfected HEK cells, MFI as % of IgG1-B7H3-BRCA84D
# T1 construct: also called human B7H3
# T1 full-length protein on cells: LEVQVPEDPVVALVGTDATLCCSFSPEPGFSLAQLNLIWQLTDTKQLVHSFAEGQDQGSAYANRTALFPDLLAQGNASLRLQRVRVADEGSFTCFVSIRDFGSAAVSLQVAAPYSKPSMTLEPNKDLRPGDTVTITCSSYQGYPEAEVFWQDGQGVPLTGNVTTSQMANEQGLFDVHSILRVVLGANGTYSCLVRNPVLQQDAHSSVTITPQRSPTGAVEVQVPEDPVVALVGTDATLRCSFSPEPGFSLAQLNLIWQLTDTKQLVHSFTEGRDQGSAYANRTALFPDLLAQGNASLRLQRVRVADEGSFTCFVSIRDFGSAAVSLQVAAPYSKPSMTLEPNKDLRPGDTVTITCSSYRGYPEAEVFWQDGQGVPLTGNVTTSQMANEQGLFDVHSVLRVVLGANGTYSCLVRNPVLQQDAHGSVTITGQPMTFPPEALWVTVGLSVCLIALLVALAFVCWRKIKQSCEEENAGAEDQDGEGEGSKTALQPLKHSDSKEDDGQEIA
# Protocol: (§1) Expression constructs were prepared encoding human B7H4, human B7H3 (Uniprot accession no. Q5ZPR3-1; SEQ ID NO: 9), or a chimeric molecule containing the IgV domain of B7H3 and the IgC domain of B7H4 (B7H3-IgV/B7H4-IgC; SEQ ID NO: 11), or a chimeric molecule containing the IgV domain of B7H4 and the IgC domain of B7H3 (B7H4-IgV/B7H3-IgC; SEQ ID NO: 10). HEK cells were transiently transfected to express these constructs.
# (§2) Cells (3×10⁴ cell/well) were incubated in polystyrene 96-well round-bottom plates (Greiner bio-one, cat. no. 650101) with serial dilutions of antibodies (range 0.0046 to 10 μg/mL in 3-fold dilution steps) in 50 μL PBS/0.1% BSA/0.02% azide (FACS buffer) at 4° C. for 30 min. After washing twice in FACS buffer, cells were incubated with secondary antibody at 4° C. for 30 min. As a secondary antibody, R-Phycoerythrin (PE)-conjugated goat-anti-human IgG F(ab′)₂ (1:500 in staining buffer; Jackson ImmunoResearch Laboratories, Inc., West Grove, PA, cat. no. 109-116-098) was used. Next, cells were washed twice in FACS buffer, re-suspended in 20 μL FACS buffer and analyzed on an iQue Screener (Intellicyt Corporation, USA).
# B7H4-IgV/B7H3-IgC = target: T2, B7H4-IgV/B7H3-IgC; test: flow cytometry, transiently transfected HEK cells, antibody at 10 µg/mL, MFI as % of the control antibody of the panel [continued) III]
# T2 construct: also called chimeric molecule with the IgV domain of B7H4 and the IgC domain of B7H3
# T2 full-length chimeric protein on cells: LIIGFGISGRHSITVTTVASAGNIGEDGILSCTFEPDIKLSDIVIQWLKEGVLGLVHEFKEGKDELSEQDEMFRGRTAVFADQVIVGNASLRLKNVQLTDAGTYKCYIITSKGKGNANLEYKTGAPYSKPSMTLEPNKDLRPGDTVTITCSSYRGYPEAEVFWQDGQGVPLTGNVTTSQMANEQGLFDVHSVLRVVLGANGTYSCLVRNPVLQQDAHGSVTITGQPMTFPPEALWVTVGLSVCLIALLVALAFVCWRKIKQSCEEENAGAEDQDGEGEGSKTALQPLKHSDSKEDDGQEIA
# Protocol: as §1, §2
# B7H3-IgV/B7H4-IgC = target: T3, B7H3-IgV/B7H4-IgC; test: flow cytometry, transiently transfected HEK cells, antibody at 10 µg/mL, MFI as % of the control antibody of the panel
# T3 construct: also called chimeric molecule with the IgV domain of B7H3 and the IgC domain of B7H4
# T3 full-length chimeric protein on cells: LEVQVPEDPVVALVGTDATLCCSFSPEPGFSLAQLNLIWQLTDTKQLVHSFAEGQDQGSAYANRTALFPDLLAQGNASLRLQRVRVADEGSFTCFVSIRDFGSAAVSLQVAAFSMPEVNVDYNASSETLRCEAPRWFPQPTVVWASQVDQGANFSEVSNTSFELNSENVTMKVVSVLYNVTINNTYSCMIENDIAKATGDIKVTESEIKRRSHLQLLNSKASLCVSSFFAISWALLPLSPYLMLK
# Protocol: as §1, §2
Binder,binding result (B7H3),binding result (B7H4-IgV/B7H3-IgC),binding result (B7H3-IgV/B7H4-IgC)
B1,no binding (tested: 10 µg/mL),binds,–
B2,no binding (tested: 10 µg/mL),–,binds
